From US20220119534A1 (DRAGONFLY THERAPEUTICS, published 2022)

Columns and labels:
[1] = target: T1, Human CLEC12A expressed on cells (Ba/F3-hCLEC12A, PL21, HL60) (human, UniProt Q5QGZ9 1-265); assay: cell-based or functional assay
T1 sequence: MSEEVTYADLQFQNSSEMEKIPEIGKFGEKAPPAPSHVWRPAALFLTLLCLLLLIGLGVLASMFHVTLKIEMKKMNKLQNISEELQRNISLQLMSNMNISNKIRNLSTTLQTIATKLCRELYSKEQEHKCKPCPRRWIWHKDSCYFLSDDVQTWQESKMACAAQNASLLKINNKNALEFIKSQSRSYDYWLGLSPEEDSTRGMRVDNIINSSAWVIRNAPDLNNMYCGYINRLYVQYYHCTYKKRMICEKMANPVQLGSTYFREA

[2] = target: T2, Human CLEC12A-His (recombinant, K244 WT) (human, UniProt Q5QGZ9 65-265); assay: SPR 37C, two-state fit, average
T2 construct: Made in house (Dragonfly Tx); also called hCLEC12A; hCLEC12A-His; not shown: His tag
T2 sequence: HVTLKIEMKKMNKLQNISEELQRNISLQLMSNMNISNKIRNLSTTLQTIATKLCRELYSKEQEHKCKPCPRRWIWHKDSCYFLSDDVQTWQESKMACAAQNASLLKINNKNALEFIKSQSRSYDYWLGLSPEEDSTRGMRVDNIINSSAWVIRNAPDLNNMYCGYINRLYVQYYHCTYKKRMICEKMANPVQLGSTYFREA

[3] = target: T2, Human CLEC12A-His (recombinant, K244 WT); assay: SPR, two-state fit (kd1); control sample
Protocol: Briefly, human Fc specific antibodies were covalently immobilized at a density ˜8000-10000 resonance units (RU) on carboxy methyl dextran matrix of a CM5 biosensor chip via amine-coupling chemistry to create an anti-hFc IgG chip. […] Association was monitored for 300 seconds and dissociation was monitored for 600 seconds. Surfaces were regenerated between cycles with three pulses of 10 mM glycine-HCl, pH 1.7 injected for 20 seconds at 100 μl/min. HBS-EP+ (1×) with 0.1 mg/ml BSA was used as running buffer throughout the experiment. Experiments were performed at physiological temperature of 37° C. To obtain kinetic rate constants and overall binding affinity, double-referenced data were fit to a two-state kinetic model using Biacore 8K Insight Evaluation software (Cytiva).

[4] = target: T1, Human CLEC12A expressed on cells …; assay: cell-based or functional assay; remark: listed apart in the source

- EC50, lysis of PL21 cells by NK cells, with sMIC-A-Fc [1]: 0.26 nM
- EC50, lysis of PL21 cells by NK cells, without sMIC-A-Fc [1]: 0.32 nM
- Kd [2]: 0.74 nM
- koff [3]: 0.0476 s⁻¹
- EC50, rested NK cells lysis of HL60 cells (mean of four donors) [4]: 0.09 nM
B1: AB0089 TriNKET (bispecific antibody, human IgG1, kappa)
chain: QLQLQESGPGLVKPSETLSLTCTVSGFSLTNYGLHWIRQPPGKCLEWIGVIWVGGATDYNPSLKSRVTISVDTSKNQFSLKLSSVQAADTAVYYCAKGDYGDTLDYWGQGTLVTVSSGGGGSGGGGSGGGGSGGGGSDIQMTQSPSSLSASVGDRVTITCHASQNINFWLSWYQQKPGKAPKLLIYEASNLHTGVPSRFSGSGSGTDFTLTISSLQPEDFATYYCQQSHSYPLTFGCGTKLEIKGSDKTHTCPPCPAPELLGGPSVFLFPPKPKDTLMISRTPEVTCVVVDVSHEDPEVKFNWYVDGVEVHNAKTKPREEQYNSTYRVVSVLTVLHQDWLNGKEYKCKVSNKALPAPIEKTISKAKGQPREPRVYTLPPCRDELTKNQVSLTCLVKGFYPSDIAVEWESNGQPENNYKTTPPVLVSDGSFTLYSKLTVDKSRWQQGNVFSCSVMHEALHNHYTQKSLSLSPG
heavy: EVQLVESGGGLVKPGGSLRLSCAASGFTFSSYSMNWVRQAPGKGLEWVSSISSSSSYIYYADSVKGRFTISRDNAKNSLYLQMNSLRAEDTAVYYCARGAPIGAAAGWFDPWGQGTLVTVSSASTKGPSVFPLAPSSKSTSGGTAALGCLVKDYFPEPVTVSWNSGALTSGVHTFPAVLQSSGLYSLSSVVTVPSSSLGTQTYICNVNHKPSNTKVDKKVEPKSCDKTHTCPPCPAPELLGGPSVFLFPPKPKDTLMISRTPEVTCVVVDVSHEDPEVKFNWYVDGVEVHNAKTKPREEQYNSTYRVVSVLTVLHQDWLNGKEYKCKVSNKALPAPIEKTISKAKGQPREPQVCTLPPSRDELTENQVSLTCLVKGFYPSDIAVEWESNGQPENNYKTTPPVLDSDGSFFLYSWLTVDKSRWQQGNVFSCSVMHEALHNHYTQKSLSLSPG
light: DIQMTQSPSSVSASVGDRVTITCRASQGISSWLAWYQQKPGKAPKLLIYAASSLQSGVPSRFSGSGSGTDFTLTISSLQPEDFATYYCQQGVSFPRTFGGGTKVEIKRTVAAPSVFIFPPSDEQLKSGTASVVCLLNNFYPREAKVQWKVDNALQSGNSQESVTEQDSKDSTYSLSSTLTLSKADYEKHKVYACEVTHQGLSSPVTKSFNRGEC
notes: F3' format heterodimer of three chains; human IgG1 Fc with EW-RVT and Y349C/S354C mutations; also called AB0089 Lot AB0089-002; CLEC12A TriNKET AB0089
